The target of the test is T4L-β2AR (N-terminally fused T4 lysozyme-β2AR construct truncated in position 365), BI-167107 bound (human). In words: crystal structure.

Take “Gαs subunit of the heterotrimeric Gs protein (from UniProt P04896 2-394)”: the buried surface for GαsRas was 1300 A^2, the buried surface for the β2AR was 1280 A^2 and the total buried surface of the β2AR-GαsRas interface came to 2580 A^2.

Source of the values: patent US20140275487A1.
